Data published in publication PMC3105425 (Nucleic Acids Research, 2011).
Each block holds one binder with its values, some of them ahead of it.

Molecular target: ribosomal protein L2 (E. coli, UniProt P60422 1-273)
Assay: ELISA

fold reduction of the interaction against wild-type DnaA: ~4 fold
B1: DnaAΔ129 lacking the N-terminal 129 residues (domain or fragment)
chain: SNVNVKHTFDNFVEGKSNQLARAAARQVADNPGGAYNPLFLYGGTGLGKTHLLHAVGNGIMARKPNAKVVYMHSERFVQDMVKALQNNAIEEFKRYYRSVDALLIDDIQFFANKERSQEEFFHTFNALLEGNQQIILTSDRYPKEINGVEDRLKSRFGWGLTVAIEPPELETRVAILMKKADENDIRLPGEVAFFIAKRLRSNVRELEGALNRVIANANFTGRAITIDFVREALRDLLALQEKLVTIDNIQKTVAEYYKIKVADLLSKRRSRSVARPRQMAMALAKELTNHSLPEIGDAFGGRDHTTVLHACRKIEQLREESHDIKEDFSNLIRTLSS

binding result: binds
B2: DnaA protein (natural protein)
chain: MSLSLWQQCLARLQDELPATEFSMWIRPLQAELSDNTLALYAPNRFVLDWVRDKYLNNINGLLTSFCGADAPQLRFEVGTKPVTQTPQAAVTSNVAAPAQVAQTQPQRAAPSTRSGWDNVPAPAEPTYRSNVNVKHTFDNFVEGKSNQLARAAARQVADNPGGAYNPLFLYGGTGLGKTHLLHAVGNGIMARKPNAKVVYMHSERFVQDMVKALQNNAIEEFKRYYRSVDALLIDDIQFFANKERSQEEFFHTFNALLEGNQQIILTSDRYPKEINGVEDRLKSRFGWGLTVAIEPPELETRVAILMKKADENDIRLPGEVAFFIAKRLRSNVRELEGALNRVIANANFTGRAITIDFVREALRDLLALQEKLVTIDNIQKTVAEYYKIKVADLLSKRRSRSVARPRQMAMALAKELTNHSLPEIGDAFGGRDHTTVLHACRKIEQLREESHDIKEDFSNLIRTLSS

binding result: binds
B3: DnaAΔ220-294 lacking residues 220–294 (natural protein)
chain: MSLSLWQQCLARLQDELPATEFSMWIRPLQAELSDNTLALYAPNRFVLDWVRDKYLNNINGLLTSFCGADAPQLRFEVGTKPVTQTPQAAVTSNVAAPAQVAQTQPQRAAPSTRSGWDNVPAPAEPTYRSNVNVKHTFDNFVEGKSNQLARAAARQVADNPGGAYNPLFLYGGTGLGKTHLLHAVGNGIMARKPNAKVVYMHSERFVQDMVKALQNNAIEPPELETRVAILMKKADENDIRLPGEVAFFIAKRLRSNVRELEGALNRVIANANFTGRAITIDFVREALRDLLALQEKLVTIDNIQKTVAEYYKIKVADLLSKRRSRSVARPRQMAMALAKELTNHSLPEIGDAFGGRDHTTVLHACRKIEQLREESHDIKEDFSNLIRTLSS
